Results reported in IntAct's records for PubMed 35512704.

B1: Mothers against decapentaplegic homolog 4 (Homo sapiens), Q13485 (parent)
chain: MDNMSITNTPTSNDACLSIVHSLMCHRQGGESETFAKRAIESLVKKLKEKKDELDSLITAITTNGAHPSKCVTIQRTLDGRLQVAGRKGFPHVIYARLWRWPDLHKNELKHVKYCQYAFDLKCDSVCVNPYHYERVVSPGIDLSGLTLQSNAPSSMMVKDEYVHDFEGQPSLSTEGHSIQTIQHPPSNRASTETYSTPALLAPSESNATSTANFPNIPVASTSQPASILGGSHSEGLLQIASGPQPGQQQNGFTGQPATYHHNSTTTWTGSRTAPYTPNLPHHQNGHLQHHPPMPPHPGHYWPVHNELAFQPPISNHPAPEYWCSIAYFEMDVQVGETFKVPSSCPIVTVDGYVDPSGGDRFCLGQLSNVHRTEAIERARLHIGKGVQLECKGEGDVWVRCLSDHAVFVQSYYLDREAGRAPGDAVHKIYPSAYIKVFDLRQCHRQMQQQAATAQAAAAAQAAAVAGNIPGPGSVGGIAPAISLSAAAGIGVDDLRRLCILRMSFVKGWGPDYPRQSIKETPCWIEIHLHRALQLLDEVLHTMPIADPQPLD

Variants of: B1
Details: with smad3_human SMAD3, P84022

effect of a mutation on the interaction	Variant
disrupting interaction strength	G386D

Variants of: B1
Details: with smad1_human SMAD1, Q15797

effect of a mutation on the interaction	Variant
disrupting interaction strength	G386D

Variants of: B1
Details: with axin2_human AXIN2, Q9Y2T1
Chain of axin2_human AXIN2, Q9Y2T1 (Q9Y2T1 whole entry): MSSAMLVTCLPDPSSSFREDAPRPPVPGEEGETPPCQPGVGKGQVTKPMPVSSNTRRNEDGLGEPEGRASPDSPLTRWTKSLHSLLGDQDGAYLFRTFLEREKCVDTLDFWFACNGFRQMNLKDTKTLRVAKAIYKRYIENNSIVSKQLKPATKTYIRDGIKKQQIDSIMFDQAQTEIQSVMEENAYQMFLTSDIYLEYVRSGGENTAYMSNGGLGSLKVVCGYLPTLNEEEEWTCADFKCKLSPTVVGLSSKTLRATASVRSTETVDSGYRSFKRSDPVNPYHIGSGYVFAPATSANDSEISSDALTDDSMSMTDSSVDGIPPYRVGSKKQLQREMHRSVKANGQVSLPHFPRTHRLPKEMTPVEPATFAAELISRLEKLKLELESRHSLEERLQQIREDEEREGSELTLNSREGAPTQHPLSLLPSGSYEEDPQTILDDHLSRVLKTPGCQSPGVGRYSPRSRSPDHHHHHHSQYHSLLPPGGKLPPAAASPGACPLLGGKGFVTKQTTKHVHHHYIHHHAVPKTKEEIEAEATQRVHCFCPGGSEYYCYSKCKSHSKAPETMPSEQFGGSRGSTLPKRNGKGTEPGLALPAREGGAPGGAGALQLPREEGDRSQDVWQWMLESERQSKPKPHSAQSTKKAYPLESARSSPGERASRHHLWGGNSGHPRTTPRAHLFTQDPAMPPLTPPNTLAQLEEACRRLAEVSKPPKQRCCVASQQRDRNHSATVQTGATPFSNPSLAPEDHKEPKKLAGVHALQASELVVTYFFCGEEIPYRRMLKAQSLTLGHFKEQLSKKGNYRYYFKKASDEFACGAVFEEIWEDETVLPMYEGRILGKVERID

effect of a mutation on the interaction	Variant
causing an interaction	G386D

Variants of: B1
Details: with gsk3b_human GSK3B

effect of a mutation on the interaction	Variant
causing an interaction	G386D

Variants of: B1
Details: with agap2_human AGAP2, Q99490
Chain of agap2_human AGAP2, Q99490 (Q99490 whole entry): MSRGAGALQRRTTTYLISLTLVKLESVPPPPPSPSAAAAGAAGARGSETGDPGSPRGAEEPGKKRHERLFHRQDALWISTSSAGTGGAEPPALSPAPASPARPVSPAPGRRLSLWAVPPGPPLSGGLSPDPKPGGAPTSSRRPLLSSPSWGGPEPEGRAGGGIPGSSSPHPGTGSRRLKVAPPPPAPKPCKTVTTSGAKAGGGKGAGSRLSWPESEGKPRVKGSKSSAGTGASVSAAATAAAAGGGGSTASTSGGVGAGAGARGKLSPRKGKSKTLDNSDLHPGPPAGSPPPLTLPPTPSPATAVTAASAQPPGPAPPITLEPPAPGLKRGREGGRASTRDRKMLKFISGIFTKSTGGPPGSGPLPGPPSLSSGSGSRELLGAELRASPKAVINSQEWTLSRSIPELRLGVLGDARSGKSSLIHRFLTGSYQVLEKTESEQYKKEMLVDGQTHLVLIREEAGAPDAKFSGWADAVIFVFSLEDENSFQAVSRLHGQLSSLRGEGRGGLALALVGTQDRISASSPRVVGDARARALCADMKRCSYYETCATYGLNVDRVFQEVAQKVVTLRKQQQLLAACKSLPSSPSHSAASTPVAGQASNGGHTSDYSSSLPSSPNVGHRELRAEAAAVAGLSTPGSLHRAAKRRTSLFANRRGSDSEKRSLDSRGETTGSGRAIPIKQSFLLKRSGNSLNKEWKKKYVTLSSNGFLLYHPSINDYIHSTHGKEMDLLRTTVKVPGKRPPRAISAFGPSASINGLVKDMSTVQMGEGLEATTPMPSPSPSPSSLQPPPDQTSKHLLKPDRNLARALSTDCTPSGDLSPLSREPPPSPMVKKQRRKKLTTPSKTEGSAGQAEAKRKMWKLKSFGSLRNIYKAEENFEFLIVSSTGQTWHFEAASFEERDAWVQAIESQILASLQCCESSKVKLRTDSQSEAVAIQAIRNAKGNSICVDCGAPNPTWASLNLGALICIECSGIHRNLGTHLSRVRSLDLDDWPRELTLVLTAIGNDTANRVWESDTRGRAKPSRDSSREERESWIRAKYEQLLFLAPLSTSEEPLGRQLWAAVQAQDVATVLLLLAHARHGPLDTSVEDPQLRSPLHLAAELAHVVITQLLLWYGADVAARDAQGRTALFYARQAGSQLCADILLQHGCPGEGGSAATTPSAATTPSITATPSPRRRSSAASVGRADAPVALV

effect of a mutation on the interaction	Variant
with no effect	G386D

Variants of: B1
Details: with ajuba_human AJUBA

effect of a mutation on the interaction	Variant
with no effect	G386D

Variants of: B1
Details: with akt1_human AKT1, P31749
Chain of akt1_human AKT1, P31749 (P31749 whole entry): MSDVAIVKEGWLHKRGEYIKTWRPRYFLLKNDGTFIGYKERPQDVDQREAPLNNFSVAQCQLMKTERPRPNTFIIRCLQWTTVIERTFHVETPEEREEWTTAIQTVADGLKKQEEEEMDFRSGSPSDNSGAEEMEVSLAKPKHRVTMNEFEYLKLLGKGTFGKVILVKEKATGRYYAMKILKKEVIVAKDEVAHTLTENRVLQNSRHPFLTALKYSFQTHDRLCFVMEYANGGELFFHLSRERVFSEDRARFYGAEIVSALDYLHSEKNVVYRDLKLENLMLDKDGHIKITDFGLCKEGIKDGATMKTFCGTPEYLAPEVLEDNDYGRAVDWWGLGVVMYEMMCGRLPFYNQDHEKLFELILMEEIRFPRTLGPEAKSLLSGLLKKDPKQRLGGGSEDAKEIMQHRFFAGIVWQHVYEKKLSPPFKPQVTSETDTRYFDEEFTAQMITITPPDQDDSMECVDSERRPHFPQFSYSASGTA

effect of a mutation on the interaction	Variant
with no effect	G386D

Variants of: B1
Details: with akts1_human AKT1S1, Q96B36

effect of a mutation on the interaction	Variant
with no effect	G386D

Variants of: B1
Details: with alk_human ALK

effect of a mutation on the interaction	Variant
with no effect	G386D

Variants of: B1
Details: with aph1a_human APH1A

effect of a mutation on the interaction	Variant
with no effect	G386D

Variants of: B1
Details: with arnt_human ARNT

effect of a mutation on the interaction	Variant
with no effect	G386D

Variants of: B1
Details: with bakor_human ATG14, Q6ZNE5

effect of a mutation on the interaction	Variant
with no effect	G386D

Variants of: B1
Details: with atpb_human ATP5F1B

effect of a mutation on the interaction	Variant
with no effect	G386D

Variants of: B1
Details: with aurkb_human AURKB

effect of a mutation on the interaction	Variant
with no effect	G386D

Variants of: B1
Details: with axin2_human AXIN2, Q9Y2T1
Remark: another data set of the same source

effect of a mutation on the interaction	Variant
with no effect	G386D

Variants of: B1
Details: with ufo_human AXL

effect of a mutation on the interaction	Variant
with no effect	G386D

Variants of: B1
Details: with za2g_human AZGP1, P25311

effect of a mutation on the interaction	Variant
with no effect	G386D

Variants of: B1
Details: with b2mg_human B2M

effect of a mutation on the interaction	Variant
with no effect	G386D

Variants of: B1
Details: with bap1_human BAP1, Q92560
Chain of bap1_human BAP1, Q92560 (Q92560 whole entry): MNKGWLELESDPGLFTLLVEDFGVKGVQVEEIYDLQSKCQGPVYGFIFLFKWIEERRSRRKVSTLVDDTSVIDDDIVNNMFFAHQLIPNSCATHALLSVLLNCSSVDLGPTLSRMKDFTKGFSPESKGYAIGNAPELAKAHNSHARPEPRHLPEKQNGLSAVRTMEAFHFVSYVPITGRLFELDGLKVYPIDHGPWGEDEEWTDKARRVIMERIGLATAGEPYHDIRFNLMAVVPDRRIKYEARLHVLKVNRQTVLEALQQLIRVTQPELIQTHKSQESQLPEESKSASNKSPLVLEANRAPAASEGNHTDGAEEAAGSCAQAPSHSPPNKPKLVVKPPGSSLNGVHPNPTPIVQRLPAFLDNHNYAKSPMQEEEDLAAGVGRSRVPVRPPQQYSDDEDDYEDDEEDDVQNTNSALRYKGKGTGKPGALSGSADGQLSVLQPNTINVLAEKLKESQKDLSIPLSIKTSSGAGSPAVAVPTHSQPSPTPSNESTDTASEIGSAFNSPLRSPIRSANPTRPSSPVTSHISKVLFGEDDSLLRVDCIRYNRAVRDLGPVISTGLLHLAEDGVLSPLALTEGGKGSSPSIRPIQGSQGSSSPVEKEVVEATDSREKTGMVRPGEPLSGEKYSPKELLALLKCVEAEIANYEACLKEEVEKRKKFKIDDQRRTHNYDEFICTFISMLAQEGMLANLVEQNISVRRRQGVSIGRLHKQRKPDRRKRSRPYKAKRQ

effect of a mutation on the interaction	Variant
with no effect	G386D

Variants of: B1
Details: with becn1_human BECN1, Q14457

effect of a mutation on the interaction	Variant
with no effect	G386D

Variants of: B1
Details: with birc2_human BIRC2, Q13490
Chain of birc2_human BIRC2, Q13490 (Q13490 whole entry): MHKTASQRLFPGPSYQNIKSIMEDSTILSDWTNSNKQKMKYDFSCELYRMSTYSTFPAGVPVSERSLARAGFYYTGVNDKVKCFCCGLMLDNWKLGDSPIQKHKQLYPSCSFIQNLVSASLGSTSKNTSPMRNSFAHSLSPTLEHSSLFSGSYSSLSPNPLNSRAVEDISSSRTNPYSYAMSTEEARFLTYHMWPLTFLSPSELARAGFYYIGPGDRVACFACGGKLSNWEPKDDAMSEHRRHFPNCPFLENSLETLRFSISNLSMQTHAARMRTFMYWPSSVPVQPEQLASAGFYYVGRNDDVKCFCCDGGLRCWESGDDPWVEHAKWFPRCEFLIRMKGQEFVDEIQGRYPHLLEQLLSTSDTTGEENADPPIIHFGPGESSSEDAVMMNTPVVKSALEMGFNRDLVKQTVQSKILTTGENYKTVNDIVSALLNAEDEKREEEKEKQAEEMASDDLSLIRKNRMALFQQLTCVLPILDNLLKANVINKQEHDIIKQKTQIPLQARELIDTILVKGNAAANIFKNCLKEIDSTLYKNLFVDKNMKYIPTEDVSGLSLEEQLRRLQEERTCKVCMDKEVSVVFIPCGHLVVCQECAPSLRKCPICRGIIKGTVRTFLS

effect of a mutation on the interaction	Variant
with no effect	G386D

Variants of: B1
Details: with braf_human BRAF

effect of a mutation on the interaction	Variant
with no effect	G386D

Variants of: B1
Details: with baba2_human BABAM2, Q9NXR7

effect of a mutation on the interaction	Variant
with no effect	G386D

Variants of: B1
Details: with btg1_human BTG1, P62324

effect of a mutation on the interaction	Variant
with no effect	G386D

Variants of: B1
Details: with btk_human BTK

effect of a mutation on the interaction	Variant
with no effect	G386D

Variants of: B1
Details: with cbl_human CBL

effect of a mutation on the interaction	Variant
with no effect	G386D

Variants of: B1
Details: with cblb_human CBLB

effect of a mutation on the interaction	Variant
with no effect	G386D

Variants of: B1
Details: with ccnd1_human CCND1, P24385

effect of a mutation on the interaction	Variant
with no effect	G386D

Variants of: B1
Details: with ccnd2_human CCND2, P30279

effect of a mutation on the interaction	Variant
with no effect	G386D

Variants of: B1
Details: with ccnd3_human CCND3, P30281

effect of a mutation on the interaction	Variant
with no effect	G386D

Variants of: B1
Details: with cd44_human CD44, P16070

effect of a mutation on the interaction	Variant
with no effect	G386D

Variants of: B1
Details: with cd79b_human CD79B

effect of a mutation on the interaction	Variant
with no effect	G386D

Variants of: B1
Details: with cdc27_human CDC27, P30260

effect of a mutation on the interaction	Variant
with no effect	G386D

Variants of: B1
Details: with cdk4_human CDK4, P11802
Chain of cdk4_human CDK4, P11802 (P11802 whole entry): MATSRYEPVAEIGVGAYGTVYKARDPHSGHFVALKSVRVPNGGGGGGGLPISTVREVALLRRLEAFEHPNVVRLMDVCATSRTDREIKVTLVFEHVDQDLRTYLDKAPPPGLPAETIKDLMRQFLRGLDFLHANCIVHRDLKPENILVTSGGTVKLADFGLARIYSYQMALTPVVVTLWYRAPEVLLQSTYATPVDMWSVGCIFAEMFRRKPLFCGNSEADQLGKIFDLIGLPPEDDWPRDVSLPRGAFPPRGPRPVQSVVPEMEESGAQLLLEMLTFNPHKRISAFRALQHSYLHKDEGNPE

effect of a mutation on the interaction	Variant
with no effect	G386D

Variants of: B1
Details: with cdk6_human CDK6, Q00534
Chain of cdk6_human CDK6, Q00534 (Q00534 whole entry): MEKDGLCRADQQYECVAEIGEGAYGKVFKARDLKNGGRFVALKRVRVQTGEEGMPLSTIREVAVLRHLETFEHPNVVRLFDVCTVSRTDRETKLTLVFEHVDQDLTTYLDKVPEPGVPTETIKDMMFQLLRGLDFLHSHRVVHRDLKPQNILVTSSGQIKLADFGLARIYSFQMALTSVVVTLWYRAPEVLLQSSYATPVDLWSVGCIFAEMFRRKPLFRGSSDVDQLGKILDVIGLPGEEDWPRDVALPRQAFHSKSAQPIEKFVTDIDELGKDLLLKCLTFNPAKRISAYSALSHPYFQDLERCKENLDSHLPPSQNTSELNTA

effect of a mutation on the interaction	Variant
with no effect	G386D

Variants of: B1
Details: with cdn2b_human CDKN2B

effect of a mutation on the interaction	Variant
with no effect	G386D

Variants of: B1
Details: with cdn2c_human CDKN2C

effect of a mutation on the interaction	Variant
with no effect	G386D

Variants of: B1
Details: with cebpa_human CEBPA

effect of a mutation on the interaction	Variant
with no effect	G386D

Variants of: B1
Details: with chd1l_human CHD1L

effect of a mutation on the interaction	Variant
with no effect	G386D

Variants of: B1
Details: with chd2_human CHD2, O14647

effect of a mutation on the interaction	Variant
with no effect	G386D

Variants of: B1
Details: with ch3l1_human CHI3L1, P36222

effect of a mutation on the interaction	Variant
with no effect	G386D

Variants of: B1
Details: with csf1r_human CSF1R

effect of a mutation on the interaction	Variant
with no effect	G386D

Variants of: B1
Details: with ctna1_human CTNNA1, P35221

effect of a mutation on the interaction	Variant
with no effect	G386D

Variants of: B1
Details: with ctnb1_human CTNNB1, P35222

effect of a mutation on the interaction	Variant
with no effect	G386D

Variants of: B1
Details: with cul3_human CUL3, Q13618

effect of a mutation on the interaction	Variant
with no effect	G386D

Variants of: B1
Details: with dicer_human DICER1, Q9UPY3

effect of a mutation on the interaction	Variant
with no effect	G386D

Variants of: B1
Details: with dll3_human DLL3, Q9NYJ7

effect of a mutation on the interaction	Variant
with no effect	G386D

Variants of: B1
Details: with duox2_human DUOX2, Q9NRD8

effect of a mutation on the interaction	Variant
with no effect	G386D

Variants of: B1
Details: with e2f1_human E2F1, Q01094

effect of a mutation on the interaction	Variant
with no effect	G386D

Variants of: B1
Details: with e2f2_human E2F2, Q14209

effect of a mutation on the interaction	Variant
with no effect	G386D

Variants of: B1
Details: with e2f4_human E2F4, Q16254
Chain of e2f4_human E2F4, Q16254 (Q16254 whole entry): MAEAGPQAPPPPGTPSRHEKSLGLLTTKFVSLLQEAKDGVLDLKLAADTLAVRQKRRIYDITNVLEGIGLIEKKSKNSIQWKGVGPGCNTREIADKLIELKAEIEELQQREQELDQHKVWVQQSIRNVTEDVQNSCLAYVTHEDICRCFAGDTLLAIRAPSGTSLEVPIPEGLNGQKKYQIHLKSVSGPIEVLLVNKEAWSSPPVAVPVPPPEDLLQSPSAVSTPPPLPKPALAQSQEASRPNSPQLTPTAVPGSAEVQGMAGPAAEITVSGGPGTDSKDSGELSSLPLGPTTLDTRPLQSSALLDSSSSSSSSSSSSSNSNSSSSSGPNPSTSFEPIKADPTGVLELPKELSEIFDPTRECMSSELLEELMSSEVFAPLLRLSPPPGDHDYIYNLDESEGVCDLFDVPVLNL

effect of a mutation on the interaction	Variant
with no effect	G386D

Variants of: B1
Details: with e2f5_human E2F5, Q15329

effect of a mutation on the interaction	Variant
with no effect	G386D

Variants of: B1
Details: with e2f8_human E2F8, A0AVK6

effect of a mutation on the interaction	Variant
with no effect	G386D

Variants of: B1
Details: with if4e_human EIF4E

effect of a mutation on the interaction	Variant
with no effect	G386D

Variants of: B1
Details: with epha2_human EPHA2, P29317

effect of a mutation on the interaction	Variant
with no effect	G386D

Variants of: B1
Details: with epha7_human EPHA7, Q15375

effect of a mutation on the interaction	Variant
with no effect	G386D

Variants of: B1
Details: with ephb1_human EPHB1, P54762

effect of a mutation on the interaction	Variant
with no effect	G386D

Variants of: B1
Details: with erbb3_human ERBB3, P21860

effect of a mutation on the interaction	Variant
with no effect	G386D

Variants of: B1
Details: with erbb4_human ERBB4, Q15303

effect of a mutation on the interaction	Variant
with no effect	G386D

Variants of: B1
Details: with esr1_human ESR1, P03372

effect of a mutation on the interaction	Variant
with no effect	G386D
